Patent US20120322725A1 (INDIANA UNIVERSITY RESEARCH AND TECHNOLOGY, published 2012)
Like-named read-outs stand apart in the source and are kept apart here. Ends that are not written are not given here.

B1: [desHis^1, hCys^9(SO3^-), Phe^25, Leu^27]Glucagon-NH2 (peptide)
peptide: SQGTFTSXYSKYLDSRRAQDFVQFLLNT
HELM: PEPTIDE1{S.Q.G.T.F.T.S.[O=C([C@H](CCS(=O)(=O)O)N[*:1])[*:2]].Y.S.K.Y.L.D.S.R.R.A.Q.D.F.V.Q.F.L.L.N.T.[am]}$$$$V2.0; N-terminus assumed
SMILES: CC(C)C[C@H](NC(=O)[C@H](Cc1ccc(O)cc1)NC(=O)[C@H](CCCCN)NC(=O)[C@H](CO)NC(=O)[C@H](Cc1ccc(O)cc1)NC(=O)[C@H](CCS(=O)(=O)O)NC(=O)[C@H](CO)NC(=O)[C@@H](NC(=O)[C@H](Cc1ccccc1)NC(=O)[C@@H](NC(=O)CNC(=O)[C@H](CCC(N)=O)NC(=O)[C@@H](N)CO)[C@@H](C)O)[C@@H](C)O)C(=O)N[C@@H](CC(=O)O)C(=O)N[C@@H](CO)C(=O)N[C@@H](CCCNC(=N)N)C(=O)N[C@@H](CCCNC(=N)N)C(=O)N[C@@H](C)C(=O)N[C@@H](CCC(N)=O)C(=O)N[C@@H](CC(=O)O)C(=O)N[C@@H](Cc1ccccc1)C(=O)N[C@H](C(=O)N[C@@H](CCC(N)=O)C(=O)N[C@@H](Cc1ccccc1)C(=O)N[C@@H](CC(C)C)C(=O)N[C@@H](CC(C)C)C(=O)N[C@@H](CC(N)=O)C(=O)N[C@H](C(N)=O)[C@@H](C)O)C(C)C
notes: also called Cmpd
B2: [hGlu^9]Glucagon(aa6-29)-NH2 (peptide)
peptide: FTSXYSKYLDSRRAQDFVQWLMNT
HELM: PEPTIDE1{F.T.S.[O=C(O)CCC[C@H](N[*:1])C(=O)[*:2]].Y.S.K.Y.L.D.S.R.R.A.Q.D.F.V.Q.W.L.M.N.T.[am]}$$$$V2.0; N-terminus assumed
SMILES: CSCC[C@H](NC(=O)[C@H](CC(C)C)NC(=O)[C@H](Cc1c[nH]c2ccccc12)NC(=O)[C@H](CCC(N)=O)NC(=O)[C@@H](NC(=O)[C@H](Cc1ccccc1)NC(=O)[C@H](CC(=O)O)NC(=O)[C@H](CCC(N)=O)NC(=O)[C@H](C)NC(=O)[C@H](CCCNC(=N)N)NC(=O)[C@H](CCCNC(=N)N)NC(=O)[C@H](CO)NC(=O)[C@H](CC(=O)O)NC(=O)[C@H](CC(C)C)NC(=O)[C@H](Cc1ccc(O)cc1)NC(=O)[C@H](CCCCN)NC(=O)[C@H](CO)NC(=O)[C@H](Cc1ccc(O)cc1)NC(=O)[C@H](CCCC(=O)O)NC(=O)[C@H](CO)NC(=O)[C@@H](NC(=O)[C@@H](N)Cc1ccccc1)[C@@H](C)O)C(C)C)C(=O)N[C@@H](CC(N)=O)C(=O)N[C@H](C(N)=O)[C@@H](C)O
notes: also called [hE^9]Glucagon(aa6-29)-NH2; peptide no

What was measured:
[1] = molecular target: T1, glucagon receptor (UniProt P47871 26-477, limits assumed); test: cell-based or functional assay
T1 sequence (P47871 26-477 limits assumed): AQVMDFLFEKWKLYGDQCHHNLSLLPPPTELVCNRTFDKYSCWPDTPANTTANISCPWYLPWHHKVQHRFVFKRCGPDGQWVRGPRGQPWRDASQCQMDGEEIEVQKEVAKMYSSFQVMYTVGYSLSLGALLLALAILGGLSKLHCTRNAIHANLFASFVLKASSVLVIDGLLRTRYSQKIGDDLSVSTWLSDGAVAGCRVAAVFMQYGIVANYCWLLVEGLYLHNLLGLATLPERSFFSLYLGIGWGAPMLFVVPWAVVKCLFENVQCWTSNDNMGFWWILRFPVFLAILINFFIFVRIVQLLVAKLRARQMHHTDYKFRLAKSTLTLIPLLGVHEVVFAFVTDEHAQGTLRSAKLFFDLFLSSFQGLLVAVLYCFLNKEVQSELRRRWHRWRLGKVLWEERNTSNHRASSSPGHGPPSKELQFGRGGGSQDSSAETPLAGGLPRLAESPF

[2] = molecular target: T1, glucagon receptor; test: receptor binding, method not described
[3] = molecular target: T1, glucagon receptor; test: receptor binding (named so for the same values in Table I), method not described
[4] = molecular target: T1, glucagon receptor; test: receptor binding, method not described; remark: listed apart in the source
[5] = molecular target: T1, glucagon receptor; test: cell-based or functional assay; remark: listed apart in the source
[6] = molecular target: T1, glucagon receptor; test: cell-based or functional assay; remark: listed apart in the source

Binder	cAMP Induction EC50 [1] [nM]	IC50 [2] [nM]	other results
SQGTTSDYSKYLDSRRAQDFVQWLMNT-NH2 (also called Cmpd) [[desHis^1, desPhe^6]Glucagon-NH2]	1180	130	
B1	430	13.9	
B2			IC50 [3]: 163 nM; IC50 [4]: 163 nM; cAMP IC50 [5]: 472 nM; cAMP pA2 [5]: 6.27; cAMP (I/A)50 [6]: 2360; cAMP pA2 [6]: 6.27
SQGTFTSEYSKYLDSRRAQDFVQFLLNT-NH2 [[desHis^1, Glu^9, Phe^25, Leu^27]Glucagon-NH2]	81	12.6	
SQLTFTSEYSKYLDSRRAQDFVQWLMNT-NH2 (also called Cmpd) [[desHis^1, Leu^4, Glu^9]Glucagon-NH2]	318	36.9	cAMP Inhibition IC50 [1]: 102 nM
